Results as given in US20240417476A1 (ATYR PHARMA, published 2024).
Where two headings read alike, the source gives them in different places. Blank lines part the entries; values can stand above or below the binder they belong to.

B1: CCR7, full coding sequence, in pBiT1.1-C with C-terminal split NanoLuc tag, expressed in Expi293F cells (receptor)
chain: QDEVTDDYIGDNTTVDYTLFESLCSKKDVRNFKAWFLPIMYSIICFVGLLGNGLVVLTYIYFKRLKTMTDTYLLNLAVADILFLLTLPFWAYSAAKSWVFGVHFCKLIFAIYKMSFFSGMLLLLCISIDRYVAIVQAVSAHRHRARVLLISKLSCVGIWILATVLSIPELLYSDLQRSSSEQAMRCSLITEHVEAFITIQVAQMVIGFLVPLLAMSFCYLVIIRTLLQARNFERNKAIKVIIAVVVVFIVFQLPYNGVVLAQTVANFNITSSTCELSKQLNIAYDVTYSLACVRCCVNPFLYAFIGVKFRNDLFKLFKDLGCLSQEQLRQWSSCRHIRRSSMSVEAETTTTFSP
notes: cDNA Genscript OHu24012; not shown: vector-encoded spacer and large split NanoLuc fragment (pBiT1.1-C)

Columns and labels:
[1] = molecular target: T1, Human NRP2a v1 (931aa) with C-terminal split NanoLuc tag, expressed in Expi293F cells (human, UniProt O60462 23-931); assay: NanoBiT split-luciferase complementation of tagged NRP2 and CCR7 in Expi293F cells; 100 nM CCL21 or CCL19 added; normalized to wells without ligand
T1 construct: Made by mutagenesis from the isoform 2 / isoform 5 vectors; not shown: vector-encoded spacer and split NanoLuc fragment (Promega pBiT vector)

[2] = molecular target: T2, Human NRP2a v2 (926aa) in pBiT2.1-C with C-terminal split NanoLuc tag, expressed in Expi293 cells (human, UniProt O60462 23-931); assay: as above
T2 construct: cDNA Origene RCC220706, isoform 2; also called pBiT2.1-C-NRP2v2 (isoform 2); NRP2 v2; not shown: vector-encoded spacer and small split NanoLuc fragment (pBiT2.1-C)

[3] = molecular target: B1; assay: NanoBiT split-luciferase complementation of tagged NRP2 and CCR7 in Expi293F cells; normalized to wells without ligand
Description: (§1) The vectors were then transfected into Expi293F cells by Expifectamine transfection reagent (Fisher Scientific) at 1 ug per mL at a density of 1 million cells per mL. Approximately 16-20 hours post transfection, cells were washed, plated at 100,000 cells/well in luminometer plates, and then cell permeable luciferase substrate was added and luminescence was monitored on a GloMax96 (Promega) until stabilization of luminescent signal was achieved.

[4] = molecular target: B1; assay: as above; remark: listed apart in the source
Description: as §1

[5] = molecular target: T2, Human NRP2a v2 (926aa) in pBiT2.1-C …; assay: NanoBiT complementation of NRP2a v2 and CCR7 truncated after aa331 in Expi293 cells; 100 nM CCL21; normalized to wells without ligand
Description: The vectors were transfected into Expi293 cells using Expifectamine (Fisher Scientific). Approximately 16-20 hours post transfection, cells were washed, plated at 100,000 cells/well in luminometer plates, and then cell permeable luciferase substrate was added and luminescence was monitored on a GloMax96 (Promega). 100 nM ligand was added, and response to ligand was calculated with respect to a control set with no ligand.

Binder: B1
binding result [1]: binds
binding result [2]: binds

B2: Human NRP2b v5 with C-terminal split NanoLuc tag, expressed in Expi293F cells (receptor)
chain: QPDPPCGGRLNSKDAGYITSPGYPQDYPSHQNCEWIVYAPEPNQKIVLNFNPHFEIEKHDCKYDFIEIRDGDSESADLLGKHCGNIAPPTIISSGSMLYIKFTSDYARQGAGFSLRYEIFKTGSEDCSKNFTSPNGTIESPGFPEKYPHNLDCTFTILAKPKMEIILQFLIFDLEHDPLQVGEGDCKYDWLDIWDGIPHVGPLIGKYCGTKTPSELRSSTGILSLTFHTDMAVAKDGFSARYYLVHQEPLENFQCNVPLGMESGRIANEQISASSTYSDGRWTPQQSRLHGDDNGWTPNLDSNKEYLQVDLRFLTMLTAIATQGAISRETQNGYYVKSYKLEVSTNGEDWMVYRHGKNHKVFQANNDATEVVLNKLHAPLLTRFVRIRPQTWHSGIALRLELFGCRVTDAPCSNMLGMLSGLIADSQISASSTQEYLWSPSAARLVSSRSGWFPRIPQAQPGEEWLQVDLGTPKTVKGVIIQGARGGDSITAVEARAFVRKFKVSYSLNGKDWEYIQDPRTQQPKLFEGNMHYDTPDIRRFDPIPAQYVRVYPERWSPAGIGMRLEVLGCDWTDSKPTVETLGPTVKSEETTTPYPTEEEATECGENCSFEDDKDLQLPSGFNCNFDFLEEPCGWMYDHAKWLRTTWASSSSPNDRTFPDDRNFLRLQSDSQREGQYARLISPPVHLPRSPVCMEFQYQATGGRGVALQVVREASQESKLLWVIREDQGGEWKHGRIILPSYDMEYQIVFEGVIGKGRSGEIAIDDIRISTDVPLENCMEPISAFAGGTLLPGTEPTVDTVPMQPIPAYWYYVMAAGGAVLVLVSVALALVLHYHRFRYAAKKTDHSITYKTSHYTNGAPLAVEPTLTIKLEQDRGSHC
notes: cDNA Origene RC210928, isoform 5; not shown: vector-encoded spacer and split NanoLuc fragment
binding result [3]: no binding (tested: 100 nM CCL21 or CCL19 (from the text))

B3: Human NRP2b v4 (906aa) with C-terminal split NanoLuc tag, expressed in Expi293F cells (receptor)
chain: QPDPPCGGRLNSKDAGYITSPGYPQDYPSHQNCEWIVYAPEPNQKIVLNFNPHFEIEKHDCKYDFIEIRDGDSESADLLGKHCGNIAPPTIISSGSMLYIKFTSDYARQGAGFSLRYEIFKTGSEDCSKNFTSPNGTIESPGFPEKYPHNLDCTFTILAKPKMEIILQFLIFDLEHDPLQVGEGDCKYDWLDIWDGIPHVGPLIGKYCGTKTPSELRSSTGILSLTFHTDMAVAKDGFSARYYLVHQEPLENFQCNVPLGMESGRIANEQISASSTYSDGRWTPQQSRLHGDDNGWTPNLDSNKEYLQVDLRFLTMLTAIATQGAISRETQNGYYVKSYKLEVSTNGEDWMVYRHGKNHKVFQANNDATEVVLNKLHAPLLTRFVRIRPQTWHSGIALRLELFGCRVTDAPCSNMLGMLSGLIADSQISASSTQEYLWSPSAARLVSSRSGWFPRIPQAQPGEEWLQVDLGTPKTVKGVIIQGARGGDSITAVEARAFVRKFKVSYSLNGKDWEYIQDPRTQQPKLFEGNMHYDTPDIRRFDPIPAQYVRVYPERWSPAGIGMRLEVLGCDWTDSKPTVETLGPTVKSEETTTPYPTEEEATECGENCSFEDDKDLQLPSGFNCNFDFLEEPCGWMYDHAKWLRTTWASSSSPNDRTFPDDRNFLRLQSDSQREGQYARLISPPVHLPRSPVCMEFQYQATGGRGVALQVVREASQESKLLWVIREDQGGEWKHGRIILPSYDMEYQIVFEGVIGKGRSGEIAIDDIRISTDVPLENCMEPISAFAGENFKGGTLLPGTEPTVDTVPMQPIPAYWYYVMAAGGAVLVLVSVALALVLHYHRFRYAAKKTDHSITYKTSHYTNGAPLAVEPTLTIKLEQDRGSHC
notes: not shown: vector-encoded spacer and split NanoLuc fragment
binding result [4]: no binding (tested: 100 nM CCL21 or CCL19 (from the text))

binding result [5]: binds
B4: CCR7 truncated after aa331 (without its C-terminal cytoplasmic sequence) in pBiT1.1-C with split NanoLuc tag, expressed in Expi293 cells (receptor)
chain: QDEVTDDYIGDNTTVDYTLFESLCSKKDVRNFKAWFLPIMYSIICFVGLLGNGLVVLTYIYFKRLKTMTDTYLLNLAVADILFLLTLPFWAYSAAKSWVFGVHFCKLIFAIYKMSFFSGMLLLLCISIDRYVAIVQAVSAHRHRARVLLISKLSCVGIWILATVLSIPELLYSDLQRSSSEQAMRCSLITEHVEAFITIQVAQMVIGFLVPLLAMSFCYLVIIRTLLQARNFERNKAIKVIIAVVVVFIVFQLPYNGVVLAQTVANFNITSSTCELSKQLNIAYDVTYSLACVRCCVNPFLYAFIGV
notes: Membrane protein on cells, cytoplasmic tail removed; not shown: vector-encoded spacer and large split NanoLuc fragment (pBiT1.1-C)
